Data from the RNAGym collection of RNA variant scans (doi:10.1073/pnas.2313332121).
Variants at the floor of the assay were thinned out.

B1: TPR 5TU (parent)
chain: GGAUCUUCUCGAUCUAACAAAAAAGACAAAUCUGCCACAAAGCUUGAGAGCAUCUUCGGAUGCAGAGGCGGCAGCCUUCGGUGGCGCGAUAGCGCCAACGUUCUCAACUAUGACACGCAAAACGCGUGCUCCGUUGAAUGGAGUUUAUCAUG

Variants of: B1
Experiment: polymerase ribozyme fitness, log enrichment relative to wild type (log ratio); higher = more active; in vitro selection for triplet polymerase activity
Outline: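 Mutant libraries of both subunits of a heterodimeric triplet polymerase ribozyme were PCR-built, transcribed, and selected once in triplicate, with frozen incubation at −7 °C and capture of gel-excised extended constructs on streptavidin beads before RT-PCR. Illumina sequencing of input and output libraries was filtered to genotypes with ≥10 input reads and ≥1 read per output. Fitness is the logarithm of genotype enrichment over wild-type enrichment, using inverse-variance-weighted replicate averages. The logarithm is base 2.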

Variant	polymerase ribozyme fitness (log ratio)
C35U A115U	-1.54
C76A A98U	-0.0442
A24U G140A	-4.12
A22G C32U A37G A41C G71A C95U C96G U139C	≤ -4.2
C38U A41U G94A	-1.15
C69A C72U	-3.05
U45C G48C C99A G143A U148C	≤ -4.2
U53A G100U	-3.41
C10G G11U C32A C51U C75U C93U C95A	-4.16
U55G G86U	-0.476
A66G U82G C93A	≤ -4.2
C14G A21U G59C G94A U101G A113C	≤ -4.2
A12G A98U	-0.71
A20C G92A U101G G124A C129U	-3.24
C27U G58C U139C	≤ -4.2
U53A G59A G84U	-1.32
G11C C63U C85U G86U C114U	≤ -4.2
C8A U55A G88A G133C G136A U139A G143C	≤ -4.2
C108A G124U G140C	≤ -4.2
C85A A98U C108A U134G	≤ -4.2
A21U C35U C43U U53A A60U G83C A98G A113G	≤ -4.2
A98G G128A	-3.02
C35U G88A A115C A119G	-3.86
U44A G88A A120G	≤ -4.2

Variant	polymerase ribozyme fitness (log ratio)
U13A G62A A142G	-2.22
A91C A150G	≤ -4.2
G88A C149U	-4.04
C36U U44A A122C	-4.15
A17G G50U	0.372
G71U C93U U104G C149A	≤ -4.2
U44A G50A C79A C99U U102G C108U	≤ -4.2
C38G G141A	-0.0444
U45A A52U U56A C76U	≤ -4.2
C36U G46U G86U C105A G124U	-3.12
U31G C35A G42A	≤ -4.2
A39U G50U G83A C96G C103U U135G	≤ -4.2
G50U G94A	-0.00242
A26C A47C A52C G58C G71A G100C C116A	≤ -4.2
C8G A29C G34C U78G G86U A97C C149U	≤ -4.2
U4A C5U C32A C54U G58A A73G G84A A91G A121U C125U U145C U146C	≤ -4.2
C76U C85A A106C	≤ -4.2
A41C C57G G136U	-3.64
C5A C54U C87U U148C	-2.76
A47C G48C G74C U78G G143U	≤ -4.2
A37C G48A C51U G86C G88A	≤ -4.2
G46A U55A	-0.993
C14G G50C A66G C85G A106G	≤ -4.2
A19U U45A G83C	-3.67

Variant	polymerase ribozyme fitness (log ratio)
U6A A23U A30U G46A A47C	≤ -4.2
G46U C87A G88A G143U U148A	≤ -4.2
C35A A66G G70U C87G C96G A121U C149U	≤ -4.2
U7G A22G C32U G59C U77G C114U U145A	≤ -4.2
C18G U146C	-0.0606
C18A C35G A39U G84U G126A A150C	≤ -4.2
A26C U134G	-4.1
U53A C95A C125U	-1.7
A28U G84U	≤ -4.2
U53G G92U G143U U144A	-3.84
A39U G92C U127A	≤ -4.2
A20U A23U A64C A91G A107G	≤ -4.2
A41C C72G A106G G143C U151G	≤ -4.2
A121U U145C	1.15
U56A A66G C95U C99U A120G	≤ -4.2
U56A C87A C105G G128C	≤ -4.2
G50A C87U	-1.74
A26U A40U A91U A121U	≤ -4.2
C14A G83A C93G A107G	≤ -4.2
C10G G92C U111A C114A	≤ -4.2
A30U U55A	-2.96
C96U U145A A150U	0.912
A19G U33C A41C A91U C93A A97C	≤ -4.2
C27U	-1.13

Variant	polymerase ribozyme fitness (log ratio)
U53A A60G C96U A106U U139G	-2.41
U33G G46C C95U C99A A107G G133U	≤ -4.2
A20U A24C C54U C63U G65U G84A C132G U148A	≤ -4.2
C36U G81A C93G G136A	≤ -4.2
A16C U82G	-1.06
C27A	-2.95
G81C C85G C95G	-3.07
A115U G141C	-3.37
A23C C87U	-3.89
G50U A73U C87U	-2.26
A91G C131A A137C G143C	≤ -4.2
C14U U135C	-3.88
G84U C87G G88C G143C	≤ -4.2
U55A G136A	-0.833
U6A U56A	-0.431
U45A G83U C85G C95U	≤ -4.2
G25U C99U A119C A120G	-3.26
C27A G71U	≤ -4.2
C14G C51U U61A	-4.06
C8G C43U G88C C93A U146G	≤ -4.2
A29U G59C G62U C95U C116A	≤ -4.2
C76U C93G C132U	-3.96
C18U G50C G88C C99U	≤ -4.2
A12G U56G C85G	-2.2

Variant	polymerase ribozyme fitness (log ratio)
A49C A52C U56C C87G C95U A98G A107C A119G	-4.17
A28G G46A C85A A91G	≤ -4.2
C10A U31C G46A C69G G80A U82A G86A C99U G100U G141A	≤ -4.2
U55A C85A C105U U134A	≤ -4.2
A28C A41C C95A G128A G140C G143A	≤ -4.2
C85U U146A	-0.167
C14G A28G C51U A52U G88A U109G	≤ -4.2
G11U C32U C93G A107G	≤ -4.2
A89G C125U C132U	-1.73
C96U U104G C129G	-2.81
U6A G11A U45A U53G C76U U90G C118U	≤ -4.2
U9G C32G G71A	≤ -4.2
A17G A147U	1.55
U15C A40U U53A G84C	-1.96
U31A C131A	-1.89
A3C A24G C36U A41U C72U C85A A91U U151A G152C	≤ -4.2
G83A A91C A142G	≤ -4.2
A22G G59A A60C C85A G94A C105U G126A	-4.1
A19U A22G A39C C79G	≤ -4.2
A3G C8A U44A A47C U56A G84C C87G	≤ -4.2
A39U C79G G84U	≤ -4.2
G48U C96A	-0.685
A17C C57A C114U	-1.86
C27A A28G A40C A47C A73C U77C C99G	≤ -4.2

Variant	polymerase ribozyme fitness (log ratio)
G48A A107G	-4.08
A17G C96A A119U	-0.596
A37G A39U G50A A142U	≤ -4.2
C18U A39G U53C C57G C75A U139G A150C	≤ -4.2
U6G U55A	0.402
G58U U82A C116U	0.803
U13G G58A C95U C96G	-4.19
A22C A137G	-2.58
A40C A89U	0.433
A26C C85U	-1.86
A60G G80C G140A G141U	≤ -4.2
A52G C76U C93G	-2.91
U61G C75U U144C	-1.52
U55G C93G	-4.19
U6C A40U U56A G59U C87U A98U C118U	-0.984
A20U C93A	-2.86
U31A A49G U55A G59U C96G	-1.89
A12U G84C A142G	-3.93
C38U U45A G68C U102G A138G	≤ -4.2
U15A A52C A66C G84U	≤ -4.2
C38A C63G A150G	-3
U90G C93G C99U	≤ -4.2
A30C G68A C87U A106U A120G	≤ -4.2
C76U G84U A98U	-1.66

Variant	polymerase ribozyme fitness (log ratio)
C10A A28U G58A C96U A122G G124C	≤ -4.2
U6G C75G U90A G92U	≤ -4.2
A20G C32G G86U C87A U109A	≤ -4.2
G50A A52C G81C	-2.82
U4A	-0.014
G83U C103G A107U	≤ -4.2
C36A U56G C85U C93U G94C	≤ -4.2
A29C C54U C85U	≤ -4.2
A24C C72A C103A U109G G126U	≤ -4.2
C85G G92C A106C A120U A121G U134A	≤ -4.2
A39U G46A C93G A119U U139G	≤ -4.2
A3C U56G C57G C116G	-2.89
C51A C118G	-3.24
A40G U56G C85A A115U U134C	-4.09
A40U G59U C75A C85U U109A	≤ -4.2
U15A C38U G58A U61G G68A G83A C87G A106C U145C	≤ -4.2
G50C C51U G92U	-2.09
A41U A91U G140A	≤ -4.2
C38U A41C G48A C51A G84C G141C	≤ -4.2
U15G C93U	-2.61
C63U C75U C76U G80A U82A C108G C114U U148C	≤ -4.2
G50A A66G	-3.75
C85U A98G	-0.688
